Measurements published in the supplement of paper PMC9112550, “Optimization of the antimicrobial peptide Bac7 by deep mutational scanning” (BMC Biology, 2022).

System: Escherichia coli TOP10
Experiment: shrunken log2 fold change of peptide-encoding DNA abundance (4.5 h post-induction vs induction); higher = less antimicrobial activity (less host growth inhibition)
Conditions: time post-induction: 4.5 h; library: site-saturation at positions 5, 18, 19, 20
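Note: peptides expressed intracellularly from a pBAD plasmid library in pooled LB shake-flask culture, induced with 0.3% L-arabinose, DNA abundance read by NGS, three biological replicates, DESeq2 with apeglm shrinkage.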

| Sequence | shrunken log2 fold change |
| --- | --- |
| RRIRARPPRLPRPRPRPNNVPRP | -0.0632 |
| RRIRQRPPRLPRPRPRPSMRPRP | 0.0637 |
| RRIRIRPPRLPRPRPRPDEMPRP | -0.15 |
| RRIRTRPPRLPRPRPRPDMPPRP | -0.064 |
| RRIRCRPPRLPRPRPRPYTGPRP | -0.554 |
| RRIRYRPPRLPRPRPRPYADPRP | -0.136 |
| RRIRIRPPRLPRPRPRPCGDPRP | -0.0271 |
| RRIRGRPPRLPRPRPRPQYIPRP | -0.27 |
| RRIRRRPPRLPRPRPRPLYVPRP | -0.379 |
| RRIRGRPPRLPRPRPRPKQSPRP | 0.887 |
| RRIRRRPPRLPRPRPRPCSWPRP | -0.124 |
| RRIRPRPPRLPRPRPRPELQPRP | 0.345 |
| RRIRPRPPRLPRPRPRPQGFPRP | -0.0446 |
| RRIRGRPPRLPRPRPRPWARPRP | 0.241 |
| RRIRTRPPRLPRPRPRPLMPPRP | 0.0315 |
| RRIRLRPPRLPRPRPRPCIGPRP | -0.147 |
| RRIRPRPPRLPRPRPRPTDIPRP | -0.241 |
| RRIRNRPPRLPRPRPRPWYMPRP | -0.911 |
| RRIRNRPPRLPRPRPRPDEVPRP | -0.00973 |
| RRIRFRPPRLPRPRPRPCDNPRP | -0.0843 |

| Sequence | shrunken log2 fold change |
| --- | --- |
| RRIRWRPPRLPRPRPRPYFGPRP | -0.168 |
| RRIRIRPPRLPRPRPRPGRPPRP | 0.398 |
| RRIRYRPPRLPRPRPRPATMPRP | -0.69 |
| RRIRERPPRLPRPRPRPGRGPRP | 0.436 |
| RRIRKRPPRLPRPRPRPMKTPRP | 0.0431 |
| RRIRTRPPRLPRPRPRPRTCPRP | 1.21 |
| RRIRRRPPRLPRPRPRPCHPPRP | -0.0611 |
| RRIRKRPPRLPRPRPRPQHHPRP | -0.201 |
| RRIRGRPPRLPRPRPRPIMSPRP | 0.0881 |
| RRIRERPPRLPRPRPRPKDVPRP | -0.152 |
| RRIRCRPPRLPRPRPRPLSGPRP | -0.0515 |
| RRIRERPPRLPRPRPRPPVQPRP | -0.122 |
| RRIRLRPPRLPRPRPRPFQMPRP | -0.193 |
| RRIRYRPPRLPRPRPRPELGPRP | -0.00146 |
| RRIRARPPRLPRPRPRPHPWPRP | -0.00896 |
| RRIRRRPPRLPRPRPRPQVKPRP | 0.132 |
| RRIRKRPPRLPRPRPRPFFFPRP | 0.779 |
| RRIRYRPPRLPRPRPRPNFVPRP | -0.0161 |
| RRIRLRPPRLPRPRPRPSHRPRP | -0.0457 |
| RRIRWRPPRLPRPRPRPVGQPRP | 0.413 |

| Sequence | shrunken log2 fold change |
| --- | --- |
| RRIRCRPPRLPRPRPRPQMQPRP | -0.347 |
| RRIRIRPPRLPRPRPRPTYLPRP | -0.463 |
| RRIRYRPPRLPRPRPRPPDFPRP | -0.136 |
| RRIRPRPPRLPRPRPRPHLFPRP | -0.0473 |
| RRIRPRPPRLPRPRPRPIDPPRP | -0.172 |
| RRIRPRPPRLPRPRPRPHTYPRP | -0.942 |
| RRIRYRPPRLPRPRPRPTNSPRP | -0.342 |
| RRIRQRPPRLPRPRPRPWRRPRP | 0.241 |
| RRIRQRPPRLPRPRPRPYYIPRP | -0.657 |
| RRIRYRPPRLPRPRPRPLNDPRP | -0.0303 |
| RRIRFRPPRLPRPRPRPFPHPRP | -0.142 |
| RRIRIRPPRLPRPRPRPPTIPRP | -0.904 |
| RRIRARPPRLPRPRPRPPQDPRP | 1.13 |
| RRIRRRPPRLPRPRPRPDMGPRP | 0.00408 |
| RRIRPRPPRLPRPRPRPTYAPRP | 0.133 |
| RRIRKRPPRLPRPRPRPRWPPRP | 0.528 |
| RRIRCRPPRLPRPRPRPVVDPRP | -0.15 |
| RRIRKRPPRLPRPRPRPWDTPRP | -0.00122 |
| RRIRMRPPRLPRPRPRPKPFPRP | 0.236 |
| RRIRYRPPRLPRPRPRPWFCPRP | -0.0679 |
